Changes are numbered by the printed parent chain. Starred links: 1 amine or outer side, 2 acyl side, 3 side chain; linkers in the order of their positions; H or OH if unused. Non-standard residues stand in square brackets, D forms with d. Groups on a side chain read outwards from the residue. No end group written: not given here. *: point of attachment. C20 diacid = O=C(O)CCCCCCCCCCCCCCCCCCC(=O)*; γGlu = O=C(O)[C@H](CCC(=O)[*:2])N[*:1]; 4Pal = N[C@@H](Cc1ccncc1)C(=O)O; αMeL = CC(C)C[C@](C)(N)C(=O)O; AEEA = NCCOCCOCC(=O)O; Aib = CC(C)(N)C(=O)O

The results in this text go back to patent US20210032299A1 (Eli Lilly, published 2021).

Holding throughout (experiment): cell-based or functional assay
One assay addresses human GLP-1 receptor (human, UniProt P43220 24-463).
For the next assay, the target named is human glucagon receptor (human, UniProt P47871 26-477).
human glucagon receptor, sequence (P47871 26-477): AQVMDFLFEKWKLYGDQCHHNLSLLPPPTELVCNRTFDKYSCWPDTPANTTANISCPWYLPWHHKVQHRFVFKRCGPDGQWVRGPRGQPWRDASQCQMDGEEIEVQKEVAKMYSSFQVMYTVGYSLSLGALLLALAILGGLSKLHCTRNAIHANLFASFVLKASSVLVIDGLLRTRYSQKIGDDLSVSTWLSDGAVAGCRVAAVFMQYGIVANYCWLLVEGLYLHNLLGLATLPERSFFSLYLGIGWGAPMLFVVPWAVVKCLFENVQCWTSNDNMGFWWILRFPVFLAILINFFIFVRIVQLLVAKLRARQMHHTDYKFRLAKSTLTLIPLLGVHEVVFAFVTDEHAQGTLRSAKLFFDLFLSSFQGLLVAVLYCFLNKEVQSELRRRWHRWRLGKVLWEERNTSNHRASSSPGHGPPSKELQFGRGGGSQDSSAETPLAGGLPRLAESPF
Assay [1] has as its target T1, human glucose-dependent insulinotropic peptide receptor (human, UniProt P48546 22-466).
T1 sequence (looked up): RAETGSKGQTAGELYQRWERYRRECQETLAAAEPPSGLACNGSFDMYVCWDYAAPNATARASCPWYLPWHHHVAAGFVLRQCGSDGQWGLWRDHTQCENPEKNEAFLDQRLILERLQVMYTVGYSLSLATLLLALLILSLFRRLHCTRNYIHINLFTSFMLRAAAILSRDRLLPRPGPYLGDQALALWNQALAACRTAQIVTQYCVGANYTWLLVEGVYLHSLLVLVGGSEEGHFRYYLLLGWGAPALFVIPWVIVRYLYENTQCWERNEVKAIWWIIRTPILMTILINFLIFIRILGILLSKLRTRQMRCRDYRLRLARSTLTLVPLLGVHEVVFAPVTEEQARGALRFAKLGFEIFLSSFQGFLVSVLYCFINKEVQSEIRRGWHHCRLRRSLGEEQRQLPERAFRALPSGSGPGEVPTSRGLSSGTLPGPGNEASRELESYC

B1: Example 1 (peptide)
peptide: YXEGTFISDYSILLDKKAQXDFVNWLLAQGPSSGAPPPS
modifications: D-Ala2; K17((2-[2-(2-Amino-ethoxy)-ethoxy]-acetyl)2-(γ-Glu)-CO-(CH2)18-CO2H); Aib20; C-terminal amide
On to B1, for which the “hGLP1R cAMP Rel EC50” value with human GLP-1 receptor was greater than 5000 nM. In addition, the “hGcgR cAMP Rel EC50” value with human glucagon receptor was 575 nM. Moreover, the “hGIPR cAMP Rel EC50” value in assay [1] worked out at 0.0476 nM.

B2: Example 2 (peptide)
peptide: B1 peptide
modifications: D-Ala2; K17((2-[2-(2-Amino-ethoxy)-ethoxy]-acetyl)2-(γ-Glu)-CO-(CH2)16-CO2H); Aib20; C-terminal amide
With B2, in the assay with human GLP-1 receptor, the “hGLP1R cAMP Rel EC50” value was greater than 5000 nM. In addition, in the assay with human glucagon receptor, the “hGcgR cAMP Rel EC50” value came to 608 nM. In assay [1], the “hGIPR cAMP Rel EC50” value is 0.0123 nM.

B3: Example 9 (peptide)
peptide: B1 peptide with A18H
modifications: D-Ala2; K17((2-[2-(2-Amino-ethoxy)-ethoxy]-acetyl)2-(γ-Glu)-CO-(CH2)18-CO2H); Aib20; C-terminal amide
Take B3: the “hGLP1R cAMP Rel EC50” value with human GLP-1 receptor is greater than 100 nM. Further, the “hGcgR cAMP Rel EC50” value in the assay with human glucagon receptor is greater than 5000 nM. In assay [1], the “hGIPR cAMP Rel EC50” value came to 0.165 nM.

B4: Example 12 (peptide)
peptide: Y[dA]EGTFISDYSILLDKK([AEEA-AEEA-γGlu-C20 diacid])AQQDFVNWLLAGGPSSGAPPPS-NH2
modifications: N-terminus assumed
SMILES: CC[C@H](C)[C@H](NC(=O)[C@H](CO)NC(=O)[C@H](Cc1ccc(O)cc1)NC(=O)[C@H](CC(=O)O)NC(=O)[C@H](CO)NC(=O)[C@@H](NC(=O)[C@H](Cc1ccccc1)NC(=O)[C@@H](NC(=O)CNC(=O)[C@H](CCC(=O)O)NC(=O)[C@@H](C)NC(=O)[C@@H](N)Cc1ccc(O)cc1)[C@@H](C)O)[C@@H](C)CC)C(=O)N[C@@H](CC(C)C)C(=O)N[C@@H](CC(C)C)C(=O)N[C@@H](CC(=O)O)C(=O)N[C@@H](CCCCN)C(=O)N[C@@H](CCCCNC(=O)COCCOCCNC(=O)COCCOCCNC(=O)CC[C@H](NC(=O)CCCCCCCCCCCCCCCCCCC(=O)O)C(=O)O)C(=O)N[C@@H](C)C(=O)N[C@@H](CCC(N)=O)C(=O)N[C@@H](CCC(N)=O)C(=O)N[C@@H](CC(=O)O)C(=O)N[C@@H](Cc1ccccc1)C(=O)N[C@H](C(=O)N[C@@H](CC(N)=O)C(=O)N[C@@H](Cc1c[nH]c2ccccc12)C(=O)N[C@@H](CC(C)C)C(=O)N[C@@H](CC(C)C)C(=O)N[C@@H](C)C(=O)NCC(=O)NCC(=O)N1CCC[C@H]1C(=O)N[C@@H](CO)C(=O)N[C@@H](CO)C(=O)NCC(=O)N[C@@H](C)C(=O)N1CCC[C@H]1C(=O)N1CCC[C@H]1C(=O)N1CCC[C@H]1C(=O)N[C@@H](CO)C(N)=O)C(C)C
For B4, in the assay with human GLP-1 receptor, the “hGLP1R cAMP Rel EC50” value is greater than 100 nM. Further, the “hGcgR cAMP Rel EC50” value in the assay with human glucagon receptor was greater than 5000 nM. Also, the “hGIPR cAMP Rel EC50” value in assay [1] was found to be 0.0911 nM.

B5: Example 11 (peptide)
peptide: Y[dA]EGTFISDYSILLDKK([AEEA-AEEA-γGlu-C20 diacid])AQQDFVNWLLAQGPSSGAPPPS-NH2
modifications: N-terminus assumed
SMILES: CC[C@H](C)[C@H](NC(=O)[C@H](CO)NC(=O)[C@H](Cc1ccc(O)cc1)NC(=O)[C@H](CC(=O)O)NC(=O)[C@H](CO)NC(=O)[C@@H](NC(=O)[C@H](Cc1ccccc1)NC(=O)[C@@H](NC(=O)CNC(=O)[C@H](CCC(=O)O)NC(=O)[C@@H](C)NC(=O)[C@@H](N)Cc1ccc(O)cc1)[C@@H](C)O)[C@@H](C)CC)C(=O)N[C@@H](CC(C)C)C(=O)N[C@@H](CC(C)C)C(=O)N[C@@H](CC(=O)O)C(=O)N[C@@H](CCCCN)C(=O)N[C@@H](CCCCNC(=O)COCCOCCNC(=O)COCCOCCNC(=O)CC[C@H](NC(=O)CCCCCCCCCCCCCCCCCCC(=O)O)C(=O)O)C(=O)N[C@@H](C)C(=O)N[C@@H](CCC(N)=O)C(=O)N[C@@H](CCC(N)=O)C(=O)N[C@@H](CC(=O)O)C(=O)N[C@@H](Cc1ccccc1)C(=O)N[C@H](C(=O)N[C@@H](CC(N)=O)C(=O)N[C@@H](Cc1c[nH]c2ccccc12)C(=O)N[C@@H](CC(C)C)C(=O)N[C@@H](CC(C)C)C(=O)N[C@@H](C)C(=O)N[C@@H](CCC(N)=O)C(=O)NCC(=O)N1CCC[C@H]1C(=O)N[C@@H](CO)C(=O)N[C@@H](CO)C(=O)NCC(=O)N[C@@H](C)C(=O)N1CCC[C@H]1C(=O)N1CCC[C@H]1C(=O)N1CCC[C@H]1C(=O)N[C@@H](CO)C(N)=O)C(C)C
Regarding B5, in the assay with human GLP-1 receptor, the “hGLP1R cAMP Rel EC50” value was greater than 100 nM. Moreover, in the assay with human glucagon receptor, the “hGcgR cAMP Rel EC50” value was found to be 445 nM. In addition, in assay [1], the “hGIPR cAMP Rel EC50” value amounted to 0.0738 nM.

B6: Example 8 (peptide)
peptide: Y[Aib]EGTFISDYSILLDKK([AEEA-AEEA-γGlu-C20 diacid])AQ[Aib]DFVNWLLAQGPSSGAPPPS-NH2
modifications: N-terminus assumed
SMILES: CC[C@H](C)[C@H](NC(=O)[C@H](CO)NC(=O)[C@H](Cc1ccc(O)cc1)NC(=O)[C@H](CC(=O)O)NC(=O)[C@H](CO)NC(=O)[C@@H](NC(=O)[C@H](Cc1ccccc1)NC(=O)[C@@H](NC(=O)CNC(=O)[C@H](CCC(=O)O)NC(=O)C(C)(C)NC(=O)[C@@H](N)Cc1ccc(O)cc1)[C@@H](C)O)[C@@H](C)CC)C(=O)N[C@@H](CC(C)C)C(=O)N[C@@H](CC(C)C)C(=O)N[C@@H](CC(=O)O)C(=O)N[C@@H](CCCCN)C(=O)N[C@@H](CCCCNC(=O)COCCOCCNC(=O)COCCOCCNC(=O)CC[C@H](NC(=O)CCCCCCCCCCCCCCCCCCC(=O)O)C(=O)O)C(=O)N[C@@H](C)C(=O)N[C@@H](CCC(N)=O)C(=O)NC(C)(C)C(=O)N[C@@H](CC(=O)O)C(=O)N[C@@H](Cc1ccccc1)C(=O)N[C@H](C(=O)N[C@@H](CC(N)=O)C(=O)N[C@@H](Cc1c[nH]c2ccccc12)C(=O)N[C@@H](CC(C)C)C(=O)N[C@@H](CC(C)C)C(=O)N[C@@H](C)C(=O)N[C@@H](CCC(N)=O)C(=O)NCC(=O)N1CCC[C@H]1C(=O)N[C@@H](CO)C(=O)N[C@@H](CO)C(=O)NCC(=O)N[C@@H](C)C(=O)N1CCC[C@H]1C(=O)N1CCC[C@H]1C(=O)N1CCC[C@H]1C(=O)N[C@@H](CO)C(N)=O)C(C)C
Take B6: in the assay with human GLP-1 receptor, the “hGLP1R cAMP Rel EC50” value is greater than 5000 nM. Also, the “hGcgR cAMP Rel EC50” value in the assay with human glucagon receptor came to 295 nM. Also, the “hGIPR cAMP Rel EC50” value in assay [1] was 0.0268 nM.

B7: Example 10 (peptide)
peptide: Y[dA]EGTFISDYSILLDKK([AEEA-AEEA-γGlu-C20 diacid])HQQDFVNWLLAGGPSSGAPPPS-NH2
modifications: N-terminus assumed
SMILES: CC[C@H](C)[C@H](NC(=O)[C@H](CO)NC(=O)[C@H](Cc1ccc(O)cc1)NC(=O)[C@H](CC(=O)O)NC(=O)[C@H](CO)NC(=O)[C@@H](NC(=O)[C@H](Cc1ccccc1)NC(=O)[C@@H](NC(=O)CNC(=O)[C@H](CCC(=O)O)NC(=O)[C@@H](C)NC(=O)[C@@H](N)Cc1ccc(O)cc1)[C@@H](C)O)[C@@H](C)CC)C(=O)N[C@@H](CC(C)C)C(=O)N[C@@H](CC(C)C)C(=O)N[C@@H](CC(=O)O)C(=O)N[C@@H](CCCCN)C(=O)N[C@@H](CCCCNC(=O)COCCOCCNC(=O)COCCOCCNC(=O)CC[C@H](NC(=O)CCCCCCCCCCCCCCCCCCC(=O)O)C(=O)O)C(=O)N[C@@H](Cc1c[nH]cn1)C(=O)N[C@@H](CCC(N)=O)C(=O)N[C@@H](CCC(N)=O)C(=O)N[C@@H](CC(=O)O)C(=O)N[C@@H](Cc1ccccc1)C(=O)N[C@H](C(=O)N[C@@H](CC(N)=O)C(=O)N[C@@H](Cc1c[nH]c2ccccc12)C(=O)N[C@@H](CC(C)C)C(=O)N[C@@H](CC(C)C)C(=O)N[C@@H](C)C(=O)NCC(=O)NCC(=O)N1CCC[C@H]1C(=O)N[C@@H](CO)C(=O)N[C@@H](CO)C(=O)NCC(=O)N[C@@H](C)C(=O)N1CCC[C@H]1C(=O)N1CCC[C@H]1C(=O)N1CCC[C@H]1C(=O)N[C@@H](CO)C(N)=O)C(C)C
For the molecule B7, the “hGLP1R cAMP Rel EC50” value in the assay with human GLP-1 receptor is greater than 100 nM. Further, in the assay with human glucagon receptor, the “hGcgR cAMP Rel EC50” value was greater than 5000 nM. In assay [1], the “hGIPR cAMP Rel EC50” value turned out to be 0.611 nM.

YAEGTFISDYSIAMDKIHQQDFVNWLLAQKGKKNDWKHNITQ-NH2 (ligand) [GIP(1-42)-NH2]: the “hGcgR cAMP Rel EC50” value in the assay with human glucagon receptor is greater than 5000 nM.

B8: Example 3 (peptide)
peptide: Y[Aib]EGTFISDYSI[αMeL]LDKK([AEEA-AEEA-γGlu-C20 diacid])HQ[Aib]DFVE[4Pal]LLEAGPSSGAPPPS-NH2
modifications: N-terminus assumed
SMILES: CC[C@H](C)[C@H](NC(=O)[C@H](Cc1ccccc1)NC(=O)[C@@H](NC(=O)CNC(=O)[C@H](CCC(=O)O)NC(=O)C(C)(C)NC(=O)[C@@H](N)Cc1ccc(O)cc1)[C@@H](C)O)C(=O)N[C@@H](CO)C(=O)N[C@@H](CC(=O)O)C(=O)N[C@@H](Cc1ccc(O)cc1)C(=O)N[C@@H](CO)C(=O)N[C@H](C(=O)N[C@@](C)(CC(C)C)C(=O)N[C@@H](CC(C)C)C(=O)N[C@@H](CC(=O)O)C(=O)N[C@@H](CCCCN)C(=O)N[C@@H](CCCCNC(=O)COCCOCCNC(=O)COCCOCCNC(=O)CC[C@H](NC(=O)CCCCCCCCCCCCCCCCCCC(=O)O)C(=O)O)C(=O)N[C@@H](Cc1c[nH]cn1)C(=O)N[C@@H](CCC(N)=O)C(=O)NC(C)(C)C(=O)N[C@@H](CC(=O)O)C(=O)N[C@@H](Cc1ccccc1)C(=O)N[C@H](C(=O)N[C@@H](CCC(=O)O)C(=O)N[C@@H](Cc1ccncc1)C(=O)N[C@@H](CC(C)C)C(=O)N[C@@H](CC(C)C)C(=O)N[C@@H](CCC(=O)O)C(=O)N[C@@H](C)C(=O)NCC(=O)N1CCC[C@H]1C(=O)N[C@@H](CO)C(=O)N[C@@H](CO)C(=O)NCC(=O)N[C@@H](C)C(=O)N1CCC[C@H]1C(=O)N1CCC[C@H]1C(=O)N1CCC[C@H]1C(=O)N[C@@H](CO)C(N)=O)C(C)C)[C@@H](C)CC
Turning to B8, in the assay with human GLP-1 receptor, the “hGLP1R cAMP Rel EC50” value is greater than 5000 nM. The “hGcgR cAMP Rel EC50” value in the assay with human glucagon receptor was determined as 1250 nM. Besides, the “hGIPR cAMP Rel EC50” value in assay [1] stood at 0.0178 nM.
